From patent US20250263482A1

Molecular target: human CLDN18.2 expressed on cells (human)
Experiment: cell-based or functional assay

B1: reference mAb (IMAB362, Ganymed) (antibody, INN chains, looked up, V domains shown)
VH: QVQLQQPGAELVRPGASVKLSCKASGYTFTSYWINWVKQRPGQGLEWIGNIYPSDSYTNYNQKFKDKATLTVDKSSSTAYMQLSSPTSEDSAVYYCTRSWRGNSFDYWGQGTTLTVSS
VL: DIVMTQSPSSLTVTAGEKVTMSCKSSQSLLNSGNQKNYLTWYQQKPGQPPKLLIYWASTRESGVPDRFTGSGSGTDFTLTISSVQAEDLAVYYCQNDYSYPFTFGSGTKLEIKR
With B1 the ADCC on KATOIII CLDN18.2 cells, LDH: EC50 (nM), run A was 0.12 nM, the ADCC on KATOIII CLDN18.2 cells, LDH: EC50 (nM), run B was 0.22 nM and the ADCC on KATOIII CLDN18.2 cells, LDH: EC50 (nM), run C was 0.27 nM. It also gave an ADCC on KATOIII CLDN18.2 cells, LDH: max (% cytotoxity), run A of 27.9%, an ADCC on KATOIII CLDN18.2 cells, LDH: max (% cytotoxity), run B of 24.5% and an ADCC on KATOIII CLDN18.2 cells, LDH: max (% cytotoxity), run C of 24.5%. The ADCC on NCI-N87 CLDN18.2 cells, LDH: EC50 (nM), run A was 0.057 nM, the ADCC on NCI-N87 CLDN18.2 cells, LDH: EC50 (nM), run B was 0.082 nM and the ADCC on NCI-N87 CLDN18.2 cells, LDH: EC50 (nM), run C was 0.1 nM. For the same binder, the ADCC on NCI-N87 CLDN18.2 cells, LDH: max (% cytotoxity), run A was 26.1%, the ADCC on NCI-N87 CLDN18.2 cells, LDH: max (% cytotoxity), run B was 22.1% and the ADCC on NCI-N87 CLDN18.2 cells, LDH: max (% cytotoxity), run C was 21.1%. For the same binder, the CDC on CT26 CLDN18.2 cells, LDH: EC50 (nM), run A was 11.5 nM, the CDC on CT26 CLDN18.2 cells, LDH: EC50 (nM), run B was 10.7 nM and the CDC on CT26 CLDN18.2 cells, LDH: EC50 (nM), run C was 11.9 nM. It also gave a CDC on CT26 CLDN18.2 cells, LDH: max (% cytotoxity), run A of 72.5%, a CDC on CT26 CLDN18.2 cells, LDH: max (% cytotoxity), run B of 54.7% and a CDC on CT26 CLDN18.2 cells, LDH: max (% cytotoxity), run C of 51.6%. It also gave a CDC on KATOIII CLDN18.2 cells, LDH: EC50 (nM), run A of 38.1 nM, a CDC on KATOIII CLDN18.2 cells, LDH: EC50 (nM), run B of 22.7 nM and a CDC on KATOIII CLDN18.2 cells, LDH: EC50 (nM), run C of 27.5 nM. It also gave a CDC on KATOIII CLDN18.2 cells, LDH: max (% cytotoxity), run A of 29.7%, a CDC on KATOIII CLDN18.2 cells, LDH: max (% cytotoxity), run B of 46% and a CDC on KATOIII CLDN18.2 cells, LDH: max (% cytotoxity), run C of 34.9%.
